# Reference: patent EP4269437A1
# “And” between values parts separate entries of the source, which are not always exact repeats. Identical values can stand only once.
# Key:
# Assay in all cases: ELISA on coated protein, anti-human Fc HRP
# ICOS = ICOS (UniProt Q9Y6W8)
# CTLA-4 = CTLA-4 (UniProt P16410)
# CD28 = CD28 (UniProt P10747)
# [1] = molecular target: murine PD-1 protein (murine) (UniProt Q02242)
# [2] = molecular target: cynomolgus monkey PD-1 protein (cynomolgus monkey) (UniProt B0LAJ3)
# Sequence of cynomolgus monkey PD-1 protein (cynomolgus monkey) (B0LAJ3 entry or part of it limits assumed, form in doubt): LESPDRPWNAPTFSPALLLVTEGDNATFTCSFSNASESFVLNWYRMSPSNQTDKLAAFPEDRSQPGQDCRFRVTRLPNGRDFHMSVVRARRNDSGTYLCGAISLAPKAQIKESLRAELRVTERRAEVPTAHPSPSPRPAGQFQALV
# Sequence of CTLA-4 (P16410 36-161 limits assumed): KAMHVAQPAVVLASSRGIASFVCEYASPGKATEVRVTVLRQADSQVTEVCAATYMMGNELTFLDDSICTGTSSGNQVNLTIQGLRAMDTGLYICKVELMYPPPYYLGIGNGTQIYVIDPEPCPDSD
# Sequence of ICOS (Q9Y6W8 21-140 limits assumed): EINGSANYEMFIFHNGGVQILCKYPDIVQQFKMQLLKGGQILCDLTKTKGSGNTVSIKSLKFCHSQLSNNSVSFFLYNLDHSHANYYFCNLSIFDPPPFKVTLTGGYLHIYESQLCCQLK
# Sequence of murine PD-1 protein (murine) (Q02242 25-167 limits assumed): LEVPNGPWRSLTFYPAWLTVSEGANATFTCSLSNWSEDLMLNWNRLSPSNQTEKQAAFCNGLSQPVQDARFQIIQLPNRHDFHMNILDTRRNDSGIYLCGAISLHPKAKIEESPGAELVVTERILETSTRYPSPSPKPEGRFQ
ELISA (OD) (ICOS),ELISA (OD) (CTLA-4),ELISA (OD) (CD28),ELISA (OD) [1],ELISA (OD) [2],Substance
0.023 OD and 0.021 OD and 0.022 OD,0.024 OD and 0.022 OD and 0.019 OD,0.02 OD and 0.021 OD and 0.023 OD,0.024 OD and 0.023 OD,1.89 OD and 1.79 OD and 1.83 OD,Opdivo (antibody)
0.125 OD and 0.107 OD and 0.131 OD,0.09 OD and 0.086 OD and 0.089 OD,0.066 OD and 0.054 OD and 0.053 OD,0.079 OD and 0.088 OD and 0.09 OD,2.22 OD and 2.32 OD,Keytruda (antibody)
